What is called Kd is the free concentration of one partner at which half of the binding sites on the other are occupied at equilibrium, for simple one-to-one binding. Usually IC50 stands for the concentration that gives 50% inhibition. High values mean a need for much substance, low ones inhibition by little substance.

Test [1] has as its target GST-fused human V158 FcγRIIIa (extracellular region) (human) (UniProt P08637). Put plainly: SPR, GST-FcγRIIIa V158 on chip. A general note: In SPR one partner is held on a chip, and binding of the other changes the refractive index at the surface.
Test [2] has the same target. Put plainly: AlphaScreen competition with biotinylated WT AC10.

Sequence of GST-fused human V158 FcγRIIIa (extracellular region) (human) (P08637 17-208 F176V): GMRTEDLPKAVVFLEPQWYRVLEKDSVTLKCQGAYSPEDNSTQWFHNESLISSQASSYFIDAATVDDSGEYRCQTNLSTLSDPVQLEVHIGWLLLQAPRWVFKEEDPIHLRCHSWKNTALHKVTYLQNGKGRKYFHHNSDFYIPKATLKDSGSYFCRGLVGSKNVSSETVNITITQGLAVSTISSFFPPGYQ

As to WT AC10 antibody (L0/H0), in test [1], the Kd came out at 18.6 nM. This substance came in with an IC50 in test [2] of 87.2 nM.

The record behind these values is patent publication US7930107.
